The source of these data is the supplement of paper PMC9170038.

The test system of series [1] is MS2 coat protein. Briefly: apparent KD of MS2 coat protein, switch ON state; designed switch direction (-1 OFF switch, 1 ON switch): -1; higher = weaker reporter binding. Conditions: FMN input: 0 or 200 uM; Eterna round: R93 (includes R88 designs). In short, it runs like this: (§1)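 Binding of SNAP-549-labelled MS2 coat protein was measured on designed RNA switches transcribed on-chip from Illumina sequencing clusters. The protein rose in twofold steps from 0.7 or 1.5 nM to 3 µM, with 0.8–1.5 h per step early on and 10–20 min per step later, in 100 mM Tris-HCl pH 7.5, 80 mM KCl, 4 mM MgCl2, without or with constant ligand. Each design's apparent KD is the median of fits to its normalised cluster binding curves.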

For series [2], the system named is MS2 coat protein. Description: apparent KD of MS2 coat protein, switch OFF state (with FMN for OFF switches, without FMN for ON switches); designed switch direction (-1 OFF switch, 1 ON switch): -1; higher = weaker reporter binding. Particulars: FMN input: 0 or 200 uM; Eterna round: R93 (includes R88 designs). The essentials:
as §1

Series [3] has as its system MS2 coat protein. Briefly: apparent KD of MS2 coat protein; designed switch direction (-1 OFF switch, 1 ON switch): 1; higher = weaker reporter binding. In short, it runs like this:
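Designed RNA switches with common flanks were made on Illumina chips by stalled E. coli RNA polymerase. Titration with SNAP-549-labelled MS2 coat protein doubled from 0.7 or 1.5 nM up to 3 µM. Apparent KD is each design's median over clusters after curve-fitting normalised fluorescence.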

Setting [4] is: input ligand: microRNA oligo, concentration not stated.
[5] abbreviates: Eterna round: R95, input ligand: FMN 200 uM.
The mark [6] stands for this setting: Eterna round: R95, input ligand: microRNA oligo, concentration not stated.
[7] abbreviates: Eterna round: R95, input ligand: none.

As for “UAAAAGGUAGGAUAUACUUGGAAGACCUGCCAACAAUAACAACAUGAGGAUCACCCAUGUAGAAGGACCAAUAU [Edtiatlema]”, the “apparent KD of MS2 coat protein” value with MS2 coat protein [1] was determined as 0.0232 µM; in the series on MS2 coat protein [2], 0.0195 µM.
For “AAAAAGUGAGGAUAUACGAUGUGGAGUAGACACAACCAGACGUAGAAGGCACAUGAGGAUCACCCAUGUCCAAA [EX4 Malc#17]”, the entries for the “apparent KD of MS2 coat protein” value with MS2 coat protein [1] and in the series on MS2 coat protein [2] were 0.021 µM and 0.0286 µM, respectively.
Take “CCCUAGUCAGGAUAUACAAACAUGUCAAAAGACGUGAAAAAACAUGAGGAUCACCCAUGUAGAAGGGACUAGGG [Mat - Exclusion 2 - JL mod - D19]”: the “apparent KD of MS2 coat protein” value in the series on MS2 coat protein [1] amounted to 0.0153 µM; in the series with MS2 coat protein [2], 0.0152 µM.
As for “AAAGUGUCAGGAUAUGCGAAGGCAUCUGACAGAUGAGGAUCGCAGAAGGGACAUGAGGAUCACCCAUGUAAAAA”, the figures for the “apparent KD of MS2 coat protein” value in the series on MS2 coat protein [1] and in the series on MS2 coat protein [2] were 0.0656 µM and 0.117 µM, respectively.
Take “AAAGGACGAGGAUAUACAUGAGGAUCACCCAUGUAAAAAACAUAAAAAAAGAACUUAUGUAGAAGGCGUCCAAA [69%, Moding Meechl, 3]”: the “apparent KD of MS2 coat protein” value in the series with MS2 coat protein [1] is 0.0527 µM; in the series on MS2 coat protein [2] it was 0.399 µM.
As to “AAUACACAUGAGGAUCACCCAUGUAAGGAUAUCGAAAAAAAACUAAACAAAAAACAAACGAGAAGGUACAAAAA [Exclusion 1 design 4]”, the “apparent KD of MS2 coat protein” value in the series with MS2 coat protein [1] stood at 0.0304 µM; in the series with MS2 coat protein [2], 0.0239 µM.
As to “AGAAAGUCAGGAUAUGCGAAGGCGUCUGAUAGACGAGGCUAGCAGAAGGGACAUGAGGAUCACCCAUGUGAAAA [Mat - Exclusion 4 - Eli mod - D86]”, the figures for the “apparent KD of MS2 coat protein” value in the series on MS2 coat protein [1] and in the series with MS2 coat protein [2] were 0.0484 µM and 0.133 µM, respectively.
Consider “AAAAAACAUGAGGAUCACCCAUGUCAGGAUAUCGUUGAAAAAAAAAAAAAAAAAAAAGCGAGAAGGGACACGAA [exclusion1-cac3]”, for which the “apparent KD of MS2 coat protein” value in the series with MS2 coat protein [1] amounted to 0.0607 µM; in the series on MS2 coat protein [2], 0.0418 µM.
“UCCUGACAUGAGGAUCACCCAUGUCAGGAUAUCUACAGAACCUCAUGUAAAAAACUGUAGAGAAGGGAUAUGGG [Design 98: Pseudoknot H]”: the “apparent KD of MS2 coat protein” value worked out at 0.0169 µM with MS2 coat protein [1] and 0.0175 µM in the series on MS2 coat protein [2].
For “GAUCCACAUGAGGAUCACCCAUGUAAGGAUAUUUAAAACCGGAGGAAACCCUCCGAAGAAAGAAGGUACAAAAC [Atceabi]” the same measures were 0.0146 µM and 0.0145 µM.
As for “AACAUGUAAGGAUAUGCUGCUCGUCACAAAAGUGAUGAGUAGCAGAAGGUACAUGAGGAUCACCCAUGUAAAGA [JL eternac mod 14]”, the “apparent KD of MS2 coat protein” value in the series with MS2 coat protein [1] worked out at 0.0506 µM; in the series on MS2 coat protein [2], 0.111 µM.
As to “AUAAAACAUGAGGAUCACCCAUGUAAGGAUAUGCGAAAAUAAAAUAAAAUAAAAUAAAGCAGAAGGUACAAAAA [Insulation 1]”, the “apparent KD of MS2 coat protein” value in the series with MS2 coat protein [1] was 0.0291 µM; in the series on MS2 coat protein [2], 0.0373 µM.
With “GGUUGGCGAGGAUAUACAUGAGGAUCACCCAUGUGAGAGAAAAAAGUGAGAAUGAAAAGUAGAAGGCGCUGACG [salish99-ex3-35]”, the “apparent KD of MS2 coat protein” value in the series with MS2 coat protein [1] stood at 0.0462 µM; with MS2 coat protein [2] it was 0.215 µM.
On to “AGGAAACAUGAGGAUCACCCAUGUGAGGAUAUUGGAAAGAAAAGAAAAGAAAGAAGAAUAAGAAGGCACAAGAA [Merneith]”, for which the “apparent KD of MS2 coat protein” value in the series with MS2 coat protein [1] amounted to 0.0218 µM; with MS2 coat protein [2], 0.0182 µM.
Turning to “AAAAAGGUAGGAUAUACAUGAGGAUCACCCAUGUAAAAAAACGCAGAAAAAAACAAUUGUAGAAGGGCCAAAAA [Ex3 Malc#6]”, the “apparent KD of MS2 coat protein” value was determined as 0.0159 µM in the series with MS2 coat protein [1] and 0.0106 µM in the series with MS2 coat protein [2].
As for “AAAAAAAAAGGAUAUACAGGAGGUAAGGUCGGACAAAAAAGACAUGAGGAUCACCCAUGUAGAAGGUUUAAAAA [Excls2-X]”, the figures for the “apparent KD of MS2 coat protein” value with MS2 coat protein [1] and in the series with MS2 coat protein [2] were 0.0394 µM and 0.0351 µM, respectively.
As for “UGUUGAAACUGAGGAUAUGGCGUGUGACGAAUGCCAGAAGGUAGUAGGAGCAACAUGAGGAUCACCCAUGUCCGGCGCAGACCC [Eternabot solution 16] (Eterna round: R96, puzzle: Same State NG 1)”, the “apparent KD of MS2 coat protein” value was 0.0856 µM in the series on MS2 coat protein [3] (input ligand: FMN 200 uM), 0.0613 µM in the series with MS2 coat protein [3] (setting [4]) and 0.0713 µM in the series on MS2 coat protein [3] (input ligand: none).
In the case of “GUUACAUGAGGAUCACCCAUGUAUGUGUGGGAGUAAGUGUCUUAGGAUAUCUGUUAUUUAAAUUAAGAGAAGGAAGAUUGUUGU [JMF's solution 8] (Eterna round: R96, puzzle: Same State NG 3)”, the “apparent KD of MS2 coat protein” value with MS2 coat protein [3] (input ligand: FMN 200 uM) is 0.12 µM; in the series with MS2 coat protein [3] (setting [4]), 0.0892 µM; in the series with MS2 coat protein [3] (input ligand: none), 0.11 µM.
Consider “AUUUAACAAGCUUUUUGCUCGUCUUAUAAACAUGAGGAUCACCCAUGUAAUAGCGUGAGAGUAAUUAUAUUAAUUAU [JMF 101] (puzzle: Sensor for hsa-mir-208a)”, for which the “apparent KD of MS2 coat protein” value amounted to 0.0147 µM with MS2 coat protein [3] (setting [5]), 0.036 µM in the series with MS2 coat protein [3] (setting [6]) and 0.0147 µM in the series on MS2 coat protein [3] (setting [7]).
Regarding “AAAAAACAUGAGGAUCACCCAUGUAAAAAAAUGGGAGGAUAUACAAAAACGAAAGUCAAAGUAGAAGGCCUGAAAA [same state 5] (Eterna round: R96, puzzle: Same State 1)”, the “apparent KD of MS2 coat protein” value in the series with MS2 coat protein [3] (setting [4]) worked out at 0.0786 µM.
As to “GUGCAACCGUGUGAGGAUAUCGGUGAACAAACAUGAGGAUCACCCAUGUCCGAAGCUCGGUUCUCCGAGAAGGCGCACAGUUGCA [Same State 2 - Mod of Erisin v.3] (puzzle: Same State 2)”, the “apparent KD of MS2 coat protein” value came to 0.0726 µM in the series with MS2 coat protein [3] (setting [5]), 0.105 µM with MS2 coat protein [3] (setting [6]) and 0.224 µM with MS2 coat protein [3] (setting [7]).
The corresponding values for “GUAUCUACAGGUUUCUUUGCUCGUCUGAUACAUGAGGAUCACCCAUGUUAUAGCCCUGUGCUUGCGCAGGGCUGAGG [Sensor for hsa-mir-208a ( MOD of Tearor v.3 )] (puzzle: Sensor for hsa-mir-208a)” are 0.0341 µM, 0.0366 µM and 0.037 µM.
For “UUAAUUAAUUAAUUAUACAUGAGGAUCACCCAUGUAAGUGAUCAGGAUAUCAGCUCGUUUAGAGCUGAGAAGGGAUCCAUGUAA [SSNG3/14-A3] (Eterna round: R96, puzzle: Same State NG 3)”, the “apparent KD of MS2 coat protein” value worked out at 0.0857 µM with MS2 coat protein [3] (input ligand: FMN 200 uM), 0.135 µM with MS2 coat protein [3] (setting [4]) and 0.15 µM in the series on MS2 coat protein [3] (input ligand: none).
For the sequence “UGUCCAGCCUGAGCUGGACAAAAGCAUGUACAUGAGGAUCACCCAUGUUCAUGUACAAGCUUUUUGCUCGUCUUAUA [salish99_208a_r3_044] (puzzle: Sensor for hsa-mir-208a)”, the “apparent KD of MS2 coat protein” value was found to be 0.404 µM in the series on MS2 coat protein [3] (setting [5]), 0.0138 µM with MS2 coat protein [3] (setting [6]) and 0.415 µM with MS2 coat protein [3] (setting [7]).
Take “GGAGCCGGCCUAGGAUAUUUCAUCAAAAAACAUGAGGAUCACCCAUGUAGGCCAGAAGGCCUUGGGAAGAAGGAGGUCGGCUCC [Loop Effect - C24] (Eterna round: R96, puzzle: Same State NG 2)”: the “apparent KD of MS2 coat protein” value stood at 0.0102 µM in the series with MS2 coat protein [3] (input ligand: FMN 200 uM), 0.0146 µM with MS2 coat protein [3] (setting [4]) and 0.019 µM in the series on MS2 coat protein [3] (input ligand: none).
Consider “GGCGAACAGGCUAACAUGAGGAUCACCCAUGUGGACUCAUGUUAGGAUAUCGGGAAGGAGGAAACCGAGAAGGGACGGUGAGCU [AK SSNG3-V2-45] (Eterna round: R96, puzzle: Same State NG 3)”, for which the “apparent KD of MS2 coat protein” value with MS2 coat protein [3] (input ligand: FMN 200 uM) was 0.191 µM; with MS2 coat protein [3] (setting [4]), 0.018 µM; with MS2 coat protein [3] (input ligand: none), 0.0341 µM.
As for “CAAGUACAUGAGGAUCACCCAUGUAGAAGAGAUGCAGGAUAUGUGGGAAAAGGGAGUGUAACAGAAGGGCAAGGAG [JR_SS!_Sub018] (puzzle: Same State 1)”, the entries for the “apparent KD of MS2 coat protein” value in the series on MS2 coat protein [3] (setting [5]), in the series on MS2 coat protein [3] (setting [6]) and in the series with MS2 coat protein [3] (setting [7]) were 0.05 µM, 0.0554 µM and 0.0599 µM, respectively.
As to “AGUCCUGAAUAAAUUAAACAGAGACAUGUACAUGAGGAUCACCCAUGUCAUGUACAAGUUCUAUGCUCGUCAUAUAA [Sensorship 19 - Jieux - Sensor for hsa-mir-208a] (puzzle: Sensor for hsa-mir-208a)”, the “apparent KD of MS2 coat protein” value was found to be 0.023 µM in the series with MS2 coat protein [3] (setting [5]), 0.0146 µM with MS2 coat protein [3] (setting [6]) and 0.0247 µM in the series with MS2 coat protein [3] (setting [7]).
In the case of “GUAGCAUACCGAGGAUAUUCAUAUUAAAUACAUGAGGAUCACCCAUGUAAGGCCAAAAGGCCUUGGGAGAAGGCGGAAUGCUAC [Xeonanis - 20 Mod3] (Eterna round: R96, puzzle: Same State NG 2)”, the “apparent KD of MS2 coat protein” value in the series with MS2 coat protein [3] (input ligand: FMN 200 uM) worked out at 0.0207 µM; in the series with MS2 coat protein [3] (setting [4]), 0.0325 µM; with MS2 coat protein [3] (input ligand: none), 0.0673 µM.
For the sequence “GUGCGGGUGCCACAGGAUAUACGUGGAUCGACAUGAGGAUCACCCAUGUAUAUCCUAAUAAUUGCGUAGAAGGGUGGUCAGCCGU [Enbebiqu] (Eterna round: R96, puzzle: Same State 2)”, the results for the “apparent KD of MS2 coat protein” value with MS2 coat protein [3] (input ligand: FMN 200 uM) and in the series with MS2 coat protein [3] (setting [4]) were 0.144 µM and 0.196 µM, respectively.
Turning to “GCAUUAGGCAUAGGAUAUCCAACAUGAGGAUCACCCAUGUCGCAGCGUGAAAAGAACGCUGCAAAGGAGAAGGAUGCGGUUUAC [Onususa] (Eterna round: R96, puzzle: Same State NG 2)”, the entries for the “apparent KD of MS2 coat protein” value in the series with MS2 coat protein [3] (input ligand: FMN 200 uM), with MS2 coat protein [3] (setting [4]) and with MS2 coat protein [3] (input ligand: none) were 0.0118 µM, 0.0188 µM and 0.0299 µM, respectively.
